# Measured values taken from US20260242478A1 (published 2026).
# B1: Phage-3883 (peptide)
# peptide: VDYVCRPSWMCSGI
# notes: tested as crude phage supernatant; The number 3883 of the label stands in r4366
# B2: Phage-3884 (peptide)
# peptide: TEPACVPPWMCVGW
# notes: tested as crude clonal phage supernatant
# B3: Phage-3885 (peptide)
# peptide: GMVRCVPDWMCYGF
# notes: as for B2
# B4: Phage-3886 (peptide)
# peptide: TEHQCVPAWMCGGF
# notes: as for B2
# B5: Phage-3887 (peptide)
# peptide: ILRHCTPEWMCIGL
# notes: as for B2
# B6: Phage-3888 (peptide)
# peptide: LQIRCQPVWMCHGF
# notes: as for B2
# B7: Phage-3889 (peptide)
# peptide: IDTLCVPWWMCSGF
# notes: as for B2
# B8: Phage-3890 (peptide)
# peptide: DQHACRPEWMCVGF
# notes: as for B2
# B9: Phage-3891 (peptide)
# peptide: VVYTCVPSWMCTGL
# notes: as for B2
# B10: Phage-3892 (peptide)
# peptide: DYWYCQPAWMCTGL
# notes: as for B2
# B11: Phage-3893 (peptide)
# peptide: LVPRCLPEWMCTGF
# notes: as for B2
# B12: Phage-3894 (peptide)
# peptide: DLQMCLPKWMCVGF
# notes: as for B2
# B13: Phage-3895 (peptide)
# peptide: EWIMCTPPWMCHGF
# notes: as for B2
# B14: Phage-3896 (peptide)
# peptide: PDVHCVPRWMCDGL
# notes: as for B2
# B15: Phage-3897 (peptide)
# peptide: LTLKCAPAWMCNGF
# notes: as for B2
# Biological target: T1, PSMA Fab (biotinylated (site not stated))
# T1 construct: Biotinylated PSMA Fab captured on neutravidin coated plates in the phage ELISA; also called Anti-PSMA Fab; 006 PSMA Fab
# Test: phage ELISA; biotinylated PSMA Fab on neutravidin plate, clonal phage supernatant, anti-M13 HRP detection;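 further: wells preincubated with PSMA antigen in blocking buffer or with blocking buffer only before clonal phage were added for a short incubation, then bound phage detected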
# Description: (§1) Clonal phage were harvested as crude supernatants and screened via standard ELISAs. […] Prior to the addition of clonal phage. wells were incubated with blocking buffer and PSMA antigen or blocking buffer alone. Without washing or aspirating, clonal phage supernatants were then added to the wells and incubated for a short time. Wells were then washed followed by detection of bound phage using a horse radish conjugated anti-M13 antibody.
row,Binder,"Phage binding ELISA signal, Anti-PSMA Fab"
1,DQRMCEPSWMCLGL [Phage-3852],1.19
2,VVHLCTPNWMCNGF [Phage-3853],1.19
3,VSKMCSPVWMCEGF [Phage-3854],1.19
4,NYVKCRPAWMCDGF [Phage-3855],1.18

# Biological target: T2, Anti-PSMA Fab
# T2 construct: In the phage ELISA the PSMA Fab was biotinylated and captured on neutravidin coated plates; also called 006 PSMA Fab
# Test: as above
# Description: as §1
row,Binder,"Phage binding ELISA signal, Anti-PSMA Fab"
1,YELACVPRWMCYGL [Phage-3856],1.18
2,SDHLCIPRWMCVGF [Phage-3857],1.18
3,GSHYCVPQWMCGGF [Phage-3858],1.17
4,EHARCTPAWMCAGF [Phage-3859],1.17
5,IESICRPAWMCERL [Phage-3860],1.17
6,VQIVCSPTWMCTGF [Phage-3861],1.17
7,PSQMCVPTWMCVGF [Phage-3862],1.17
8,QLGACIPWWMCNGF [Phage-3863],1.17
9,NAGYCVPTWMCDGF [Phage-3864],1.17
10,MGVECKPLWMCTGL [Phage-3865],1.16
11,GQGSCVPMWMCEGF [Phage-3866],1.16
12,LSWECVPQWMCTGL [Phage-3867],1.16
13,PYTLCRPAWMCQAM [Phage-3868],1.16
14,LEIFCVPMWMCEGL [Phage-3869],1.16

# Biological target: T3, PSMA Fab
# T3 construct: also called Anti-PSMA Fab; 006 PSMA Fab
# Test: clonal phage ELISA on biotinylated PSMA Fab captured on neutravidin plates, anti-M13 HRP detection;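 further: crude clonal phage supernatants tested, before phage were added, wells were pretreated with PSMA antigen in blocking buffer or with blocking buffer only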
# Description: as §1
row,Binder,phage binding ELISA signal
1,AVIMCEPSWMCEGF (tested as crude phage supernatant) [Phage-3870],1.16
2,EGILCKPSWMCNDF (tested as crude phage supernatant) [Phage-3871],1.15
3,STMLCSPSWMCFGF (tested as crude phage supernatant) [Phage-3872],1.15
4,LQQLCVPNWMCVGF (tested as crude phage supernatant) [Phage-3873],1.15
5,YDRLCSPPWMCSGF (tested as crude phage supernatant) [Phage-3874],1.15
6,PQIKCIPAWMCDGF (tested as crude phage supernatant) [Phage-3875],1.14
7,SNVMCRPSWMCAGF (tested as crude phage supernatant) [Phage-3876],1.14
8,EDALCVPQWMCSGF (tested as crude phage supernatant) [Phage-3877],1.14
9,TAPMCNPPWMCYGL (tested as crude phage supernatant) [Phage-3878],1.13
10,VTPACMPRWMCEGF (tested as crude phage supernatant) [Phage-3879],1.13
11,IEKQCVPQWMCDGF (tested as crude phage supernatant) [Phage-3880],1.13
12,ESKLCIPDWMCILL (tested as crude phage supernatant) [Phage-3881],1.13
13,MDVWCVPQWMCDGF (tested as crude phage supernatant) [Phage-3882],1.12
14,B1,1.12

# Biological target: T4, 006 PSMA Fab (biotinylated (site not stated))
# T4 construct: also called Anti-PSMA Fab
# Test: clonal phage ELISA; biotinylated PSMA Fab on neutravidin plate pre-incubated with PSMA antigen as competitor, anti-M13-HRP detection
row,Binder,"Phage binding ELISA signal, Anti-PSMA Fab in the presence of PSMA antigen"
1,B2,0.128
2,B3,0.0613
3,B4,0.0809
4,B5,0.0689
5,B6,0.0801
6,B7,0.0774
7,B8,0.0789
8,B9,0.062
9,B10,0.0585
10,B11,0.0848
11,B12,0.0639
12,B13,0.0638
13,B14,0.0633
14,B15,0.0619

# Biological target: T1, PSMA Fab
# Test: phage ELISA; biotinylated PSMA Fab on neutravidin plate pre-incubated with PSMA antigen as competitor, anti-M13 HRP detection;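 further: crude clonal phage supernatants tested, compared against control wells pre-incubated with blocking buffer only, without PSMA antigen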
# Description: as §1
row,Binder,"Phage binding ELISA signal, Anti-PSMA Fab in presence of PSMA"
1,DQRMCEPSWMCLGL [Phage-3852],0.0704
2,VVHLCTPNWMCNGF [Phage-3853],0.0576
3,VSKMCSPVWMCEGF [Phage-3854],0.0928
4,NYVKCRPAWMCDGF [Phage-3855],0.0759

# Biological target: T4, 006 PSMA Fab
# Test: clonal phage ELISA; biotinylated PSMA Fab on neutravidin plate, blocking buffer alone, anti-M13-HRP detection;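 further: crude clonal phage supernatants added without washing to wells preincubated with PSMA antigen or with blocking buffer alone, briefly incubated, then washed before bound phage detection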
# Description: as §1
row,Binder,"Phage binding ELISA signal, Anti-PSMA Fab"
1,B2,1.12
2,B3,1.11
3,B4,1.11
4,B5,1.11
5,B6,1.1
6,B7,1.1
7,B8,1.1
8,B9,1.1
9,B10,1.1
10,B11,1.09
11,B12,1.09
12,B13,1.09
13,B14,1.08
14,B15,1.08

# Biological target: T5, PSMA Fab (006 PSMA Fab)
# T5 construct: also called Anti-PSMA Fab
# Test: phage ELISA on captured PSMA Fab pre-incubated with the competitor PSMA antigen, anti-M13-HRP detection
# Description: as §1
row,Binder,"phage binding ELISA signal, Anti-PSMA Fab in the presence of PSMA"
1,ESRACVPNWMCHGL [Phage-3911],0.06
2,ATVRCMPMWMCHGF [Phage-3912],0.0901
3,QNFHCVPQWMCDWL [Phage-3913],0.0986

# Biological target: T5, PSMA Fab (006 PSMA Fab)
# Test: clonal phage supernatant on biotinylated PSMA Fab captured on neutravidin plate, anti-M13-HRP detection;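 further: before phage were added, wells received PSMA antigen in blocking buffer or blocking buffer alone, with no wash in between, followed by a short phage incubation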
# Description: as §1
row,Binder,"Phage binding ELISA signal, Anti-PSMA Fab"
1,ESRACVPNWMCHGL [Phage-3911],1.03
2,ATVRCMPMWMCHGF [Phage-3912],1.03
3,QNFHCVPQWMCDWL [Phage-3913],1.02

# Biological target: T3, PSMA Fab
# Test: clonal phage ELISA on captured PSMA Fab, wells pre-incubated with PSMA antigen as competitor
# Description: as §1
row,Binder,phage binding ELISA signal
1,AVIMCEPSWMCEGF (tested as crude phage supernatant) [Phage-3870],0.102
2,EGILCKPSWMCNDF (tested as crude phage supernatant) [Phage-3871],0.0803
3,STMLCSPSWMCFGF (tested as crude phage supernatant) [Phage-3872],0.073
4,LQQLCVPNWMCVGF (tested as crude phage supernatant) [Phage-3873],0.0902
5,YDRLCSPPWMCSGF (tested as crude phage supernatant) [Phage-3874],0.0629
6,PQIKCIPAWMCDGF (tested as crude phage supernatant) [Phage-3875],0.0851
7,SNVMCRPSWMCAGF (tested as crude phage supernatant) [Phage-3876],0.132
8,EDALCVPQWMCSGF (tested as crude phage supernatant) [Phage-3877],0.0648
9,TAPMCNPPWMCYGL (tested as crude phage supernatant) [Phage-3878],0.0701
10,VTPACMPRWMCEGF (tested as crude phage supernatant) [Phage-3879],0.0611
11,IEKQCVPQWMCDGF (tested as crude phage supernatant) [Phage-3880],0.0745
12,ESKLCIPDWMCILL (tested as crude phage supernatant) [Phage-3881],0.0662
13,MDVWCVPQWMCDGF (tested as crude phage supernatant) [Phage-3882],0.0645
14,B1,0.0618
